Positions count from the first letter of the chain named. Blank lines part the entries; values can stand above or below the binder they belong to.
How the values were obtained:
Experiment in all cases: ELISA on coated NKG2D-Fc;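 further: titrated NKG2D-binding domains on plate-bound human, mouse or cynomolgus NKG2D ectodomain–human IgG1 Fc fusions, detected with HRP anti-human kappa secondary and TMB, absorbance at 450 nm corrected at 540 nm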
[1] = molecular target: T1, recombinant human NKG2D-Fc (human, UniProt P26718 73-216)
T1 construct: extracellular domain; also called human NKG2D-Fc fusion protein; NKG2D-Fc-biotin; not shown: human IgG1 Fc domain
T1 sequence (looked up): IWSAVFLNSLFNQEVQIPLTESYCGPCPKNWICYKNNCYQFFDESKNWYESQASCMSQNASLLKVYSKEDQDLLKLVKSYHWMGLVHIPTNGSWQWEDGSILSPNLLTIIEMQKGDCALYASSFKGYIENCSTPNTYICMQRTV

[2] = molecular target: T2, recombinant cynomolgus NKG2D-Fc (cynomolgus; human, UniProt P61252 73-216)
T2 construct: extracellular domain; also called cynomolgus NKG2D-Fc fusion protein; not shown: human IgG1 Fc domain
T2 sequence (looked up): T1 sequence (looked up) with D43N, T133I

[3] = molecular target: T3, recombinant mouse NKG2D-Fc (mouse; human, UniProt O54709 90-232)
T3 construct: extracellular domain; also called mouse NKG2D-Fc fusion protein; Mouse NKG2D-Fc-biotin; not shown: human IgG1 Fc domain
T3 sequence (looked up): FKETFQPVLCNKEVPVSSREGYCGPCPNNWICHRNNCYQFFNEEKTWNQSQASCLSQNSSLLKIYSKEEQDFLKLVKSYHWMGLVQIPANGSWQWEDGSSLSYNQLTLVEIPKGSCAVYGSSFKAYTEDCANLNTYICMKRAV

binding result [1]: binds
binding result [2]: binds
binding result [3]: binds
B1: ADI-29378 (antibody, V domains shown)
VH: QVQLVQSGAEVKKPGASVKVSCKASGYTFTSYYMHWVRQAPGQGLEWMGIINPSGGSTSYAQKFQGRVTMTRDTSTSTVYMELSSLRSEDTAVYYCAREGAGFAYGMDYYYMDVWGKGTTVTVSS
VL: EIVLTQSPATLSLSPGERATLSCRASQSVSSYLAWYQQKPGQAPRLLIYDASNRATGIPARFSGSGSGTDFTLTISSLEPEDFAVYYCQQSDNWPFTFGGGTKVEIK
notes: also called E78

binding result [1]: binds
binding result [2]: binds
binding result [3]: binds
B2: ADI-27749 (antibody, V domains shown)
VH: EVQLVESGGGLVKPGGSLRLSCAASGFTFSSYSMNWVRQAPGKGLEWVSSISSSSSYIYYADSVKGRFTISRDNAKNSLYLQMNSLRAEDTAVYYCARGAPMGAAAGWFDPWGQGTLVTVSS
VL: DIQMTQSPSSVSASVGDRVTITCRASQGISSWLAWYQQKPGKAPKLLIYAASSLQSGVPSRFSGSGSGTDFTLTISSLQPEDFATYYCQQGVSFPRTFGGGTKVEIK
notes: also called A49
